In the nanobody polyreactivity screen of Harvey et al. (2022):

Assay: yeast display, Sf9 membrane polyspecificity reagent, FACS + sequencing; frameworks hold sequencing errors
Summary of the method: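 Using colony PCR, genes from sorted yeast display clones were amplified, then sequenced on MiSeq at 2 × 250 and filtered by CDR length. The clones had been stained with 10% biotinylated, detergent-solubilized Sf9 membrane reagent for 1 hour at 4 °C and sorted by FACS into low and high (top ~1%) gates on anti-HA and streptavidin fluorescence. Polyreactivity labels come from the gate of origin.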

Sequence | polyreactivity (PSR sort gate)
QVQLVESGGGLVQAGGSLRLSCAASGIIFIFYDMGWSRQAPGKERELVATITSGTNTYADSVKGRFTISRDNAKNTVYLQMNSLKPEDTAVYSCAAGFSPASQLDYWGQGTQVTVSS | low polyreactivity
QVQLVESGGGLVQAGGSLRLSCAASGSIFALYAMGWYRQAPGKERELVAAISRRGGRTYYADSVKGRFTISRDNAKNTVYLQMNSLIPEDTAVYYCNARGYNVPHPNRYDYWGQGTQVTVSS | high polyreactivity
QVQLVESGGGLVQAGGSLRLSCAASGFTFYRNAMGWYRQAPGKERELVAAISWSGDSTYYADSVKGRFTISRDNAKNTVYLQMNSLKPEDTAVYYCDKERYFYYPWVTTYTSNYWGQGTQVTVSS | low polyreactivity
QVQLQESGGGLVQAGGTLRLSCAASGSFSADEDMGWYRQAQGKESEFVAGISVGGNTNYADSVKGRFTISRENAKNTVYLQINSLKPEDTAVYYCAVLQDVYDALDYWAQGTQVTVSS | high polyreactivity
PVQLVDSGGGLVQAGGSLRLSCAASGSTFQRNVMGWYRQAPGKERELVAAITWRGTSTYYADSVKGRFTISRDNAKNTVYLQMNSLKPEDTAVYYCAAERTRSGYYYDYWGQGTQVTVSS | high polyreactivity
QVQLVESGGGLVQAGGSLRLSCAASGGTFSYNAMGWYRQAPGKERELVAAISWSGTRTYYADSVKGRFTISRDNAKNTVYLQMNSLKPEDTAVYYCNKPPPNRGRYDYWGQGTQVTVSS | low polyreactivity
QVQLVESGGGLVQAGGSLRLSCAASGSIFLLYAMGWYRQAPGKERELVAAIRWSGARTYYADSVKGRFTISRDKAKNTVYLQMNSLKPDDTAVYYCAADYVVDDIYWWEGDYWGQGTQVTVSS | high polyreactivity
QVQLVESGGGLVQAGGSLRLSCAASGSTFKSYAMGWYRQAPGKERELVAAINWSGGSTYYADSVKGRFTISRDNAKNTVYLQMTSLKPEDTAVYYCNALYAVRSYDSWGQGTQVTVSS | high polyreactivity
QVQLVESGGGLVQAGGSLRLSCAASGSIFHSYAMGWYRQAPGKERDFVASITQRVGRTNYADSVKGRFTISRDNAKNTVYLQMNSLKPEDTAVYYFAASYWRLYYRRDYWGQGTQVTVSS | high polyreactivity
QVQLVESGGGLVQAGGSLRLSCAASVSTLRYYAMGWYRQAPGKERELVAAISYSGGSTYYADSVKGRFTISRDNAKNTVYLQMNRLKPEDTAVYYCNAEWGWRRYGSSYVYWGQGTQVTVSS | high polyreactivity
QVQLVESGGGLVQAGGSLRFSCAASVFTFYSYAMGSDSQSPGKESEFVAAINQTSGSTTYADSVKGRFTISRDYGKNTVYLKMISLKPEDTAVYYCNAYQYYERYDTYLFRYDYWGQGTQVTVSS | low polyreactivity
QVQLVESGGGLVQAGGSLRLSCAASGRIFRYYAMGWYRQAPGKERELVAGISRSGGRTYYADSVKGRFTISRDNAKNTVYLQMNSLKPEDTAVYYCNASRGYPYHYDYWGQGTQVTVSS | high polyreactivity
QVQLVESGGGLVQAGGSLRLSCAASGSTFPYYAMGWSRQAPGKERELVAAISGSGGTTYYADSVKGRFTISRDNAKNTVYLQMNSLKPEYTAVYYCAVDIGVGYGYYYWGQGTQVTVSS | low polyreactivity
QVQLVESGGGLVQAGGSLRLSCAASGRTFRNYAMGWYRQAPGKERELVAAINSGGSTNYADSVKGRFTISRDNAKNTVYLQMNSLKPEDTAVYYCAKRRTYPGKGRFNYWGQGTQVTVSS | low polyreactivity
QVQLVESGGGLVQAGGSLLLSCAASGFIFGLNAMGWYRQAPGKERELVAAIRSASSTNYADSVKGRFTISRDNAKNTVYLQMNSLKPEDTAVYYCAAEYVTYQQGFWGYDYWGQGTQVTVSS | low polyreactivity
QFQLVESGGGLVQAGGSLRLSCAASGSIFSINAMGWYRQAPGKERELVAVISWIGGNTYYADSVKGRFTISRDNAKNTVYLQMNSLKPEDTAVYYCAVATGPVSYRRYYWGQGTQVTVSS | high polyreactivity

Sequence | polyreactivity (PSR sort gate)
QVQLVESGGGLVQAGGILRLSCAASGLSFSWYDMGWYRQAPGKERELVAAITTDGDDTYYADSVKGRFTISRDNAKNTVYLQMNSLKPEDTAVYYCAADSELAIRYPDRDYDSWGQGTQVTVSS | low polyreactivity
QVQLVESGGGLVQAGGSLRLSCAASGSTFLYYTMGWYRQAPGKERELVAAITGSGTSTYYADSVKGRFTISRDNAKNTVYLQMNSLKPEDTAVYYCAARGHGRLYYWGQGTQVTVSS | high polyreactivity
QVQLVESGGGLVQAGGSLRLSCAASGSTFGSYAMGWYIQAPGKERELVAAISRAGSTYADSVKGRFTISRDNAKNTVYLQMNSLKPEDTAVYYCAKRDNALYYGYDYWGQGTQVTVSS | low polyreactivity
QVQLVESGGGLVQAGGSLRLSCAASGLTFKQYALGWYRQAPGKERELVAAITVSGGDTYYADSVKGRFTISRDNAKNSVYLQMNSLKPVDTAVYYCAADHFFWGYDYWGQGTQVTVSS | high polyreactivity
QVQLVESGGGLVQAGGSLRLSCAASGSTFLVYAMGWYRQAPGKERELVADITSRGGSTYYADSVKGRFTISRDNAKNTVYLQMISLKPEDTAVYYCAARKRFVLFDYWGQGTQVTVSS | low polyreactivity
QVQLVESGGGLVQAGGSLRLSCAASGRIFTWYAKGWYRQAPGKERELVAAISWSGGRTYYADSVKGRFTISRDNAKNTVYLQMNSLKPEDTAVYYCNAVPSVRWRYDYWGQGTQVTVSS | high polyreactivity
QVQLVESGGGLVQAGGSLRLSCAASGIIFGIYAMGWYRQAPGKEREFVAAISWSDGSTRYADSVKGRFTISRDNAKNTVYLQMNCLKPEDTAVYYCNTDIGPLDFGEYSYPDDYWGQGTQVTVSS | low polyreactivity
QVQLVESGGGLVQAGGSLRLSCAASGFTFYHYAMGWYRQAPGKERELVAAISRSAGSTYYADSVKGRFTISRDNAKNTVYLQMNSLKPEDTAVYYCAKVLRAKNSFDYWGQGTHVTVSS | high polyreactivity
QVQLVESGGGLVQAGGRLRLSCAASGRTLWIYAMGWYRQAPGKERELVASITTRGGSTYYADSVKGRFTISRDNAKNTVYLQMKSLKPEDTAVYYCAAEGYTYYTYDPHDYWGQGTQVTVSS | high polyreactivity
QVQLVESGGGLVQAGGSLRLSCAASGNIFYLYAMGWYRQAPGKEREFSTSYADSVKGRFTISRDNAKNTVYLQMNSLKPEDTAVYYCAAYKSRGPYYYLFDYWGQGTQVTVSS | low polyreactivity
QVQLVESGGGLVQAGGSLRLSCAASGSTFSRYAMGWYRQAPGKERELVAAISWSGASTYYADSVKGRFTISRDNAKNTVYLQMNRLKPEDTSVYYCAKVARQNWFRYYYDYWGQGTQVTVSS | high polyreactivity
QVQLVESGGGLVQAGGSLRLSCAASGIIFSAYAMGWYRQAPGKERELVAAISSGGSTNYADSVKGRFTISRDNAKNTVYLQMNSLKPEDTAVYYCNAGERDVPNSYVAYREDYWGQGTQVTVSS | low polyreactivity
QVQLVESGGGLVQAGGSLRLSCAASGGTFVSYVMGWYRQAPGKEREWVAAISVSGGRTYYADSVKGRFTISRDNAKNTVYLQMNSLKPEDTAVYYCAADSVVVGSPGNDYWGQGTQVTVSS | high polyreactivity
QVQLVESGGGLVQAGGSLRLTSAASGSTIDYYAMGWYRQAPGKERELVARISKRGGSTYYADSVKGRFTISRDNAKYTVYLQMNSLKPEDTAVYFCAKRVRISYTNYHFDYWGQCTQVTVSS | high polyreactivity
QVQLVESGGGLVQAGGRLRLSCSASGRIFATYAMGWYRQAPGKERELVASISRRGGSTYYADSVKGRFTISRDNAKKTVYLQMNSLKPEDTAVYYCAKLFDTERGYNYWGQGTQVTVSS | high polyreactivity
QVQLVESGGGLVQVGGSLRLSCAASGRTFYRYAMGWYRQAPGKERELVATINWTSGSTYYADSVKGRFTISRDKAKNTVYLQMNSLKPEDTAVYYCATVPHGKDTFGYWGQGTQVTVSS | high polyreactivity
